Source: patent US20240083999A1 (published 2024)

B1: JYK-D12/JYK-D12 homodimer (VHH)
chain: QVQLVESGGGLVQPGGSLGLSCAASGFTLAYYGIGWFRQAPGKEREGVACISSSDLSTYYADSVKGRFTISRDNAKDTVYLQMNSLKPEDTAVYYCAAGTWDLKFGYSRSNCVRSYEYDYWGQGTQVTVSSGGGGSGGGGSGGGGSQVQLVESGGGLVQPGGSLGLSCAASGFTLAYYGIGWFRQAPGKEREGVACISSSDLSTYYADSVKGRFTISRDNAKDTVYLQMNSLKPEDTAVYYCAAGTWDLKFGYSRSNCVRSYEYDYWGQGTQVTVSS
B2: hIL-6-binding VHH JYK-H9 (Trx/JYK-H9/E) (VHH)
VHH: QLQLVETGGGLVQPGGSLRLSCAASGFTLDYYAIGWFRQAPGKEREGVSCLSSSDRSTYYVDSVKGRFTISRDDDKNTAYLQMNSLKPEDTATYYCAAGTWDLKWGYNISACVGSYEYDYWGQGTQVTVSS
B3: hIL-6-binding VHH JYK-A1 (Trx/JYK-A1/E) (VHH)
VHH: QLQLAETGGGLVQPGGSLRLSCAASGFTLDYYAVGWFRQAPGKEREGISCISSSDLKTYYADSVKGRFTISRDYAKSTVSLQMNSLKPEDTGVYYCAAGTWDLKFGYNISACVGSYEYDYWDQGTQVTVSS
B4: hIL-6-binding VHH JYK-F12 (Trx/JYK-F12/E) (VHH)
VHH: QVQLAETGGGSVQAGGSLTLSCAASGRTFSSRAMGWFRQAPGKEREFVAVISWTGSPYYTDSVKGRFTISRDDAKNTVYLQMNSLKPEDTAVYYCAATSEHVMLVVTTRGGYDYWGQGTQVTVSS
B5: hIL-6-binding VHH JYK-D12 (Trx/JYK-D12/E) (VHH)
VHH: QLQLVESGGGLVQPGGSLGLSCAASGFTLAYYGIGWFRQAPGKEREGVACISSSDLSTYYADSVKGRFTISRDNAKDTVYLQMNSLKPEDTAVYYCAAGTWDLKFGYSRSNCVRSYEYDYWGQGTQVTVSS
B6: hIL-6-binding VHH JYK-A9 (Trx/JYK-A9/E) (VHH)
VHH: QVQLVESGGGLVQAGDSLTLSCAASGRPFSSFAMGWFRQAPGKEREFVAAITWSRGTTHYADSVKGRFTISGDNAKNTVFLQMNSLKPEDTAVYYCAAADGWKVVSTASPAYDYWGQGTQVTVSS

The binders below were run against T1, human interleukin 6 (hIL-6) (UniProt P05231 30-212) (assay: ELISA).
T1 sequence (P05231 30-212): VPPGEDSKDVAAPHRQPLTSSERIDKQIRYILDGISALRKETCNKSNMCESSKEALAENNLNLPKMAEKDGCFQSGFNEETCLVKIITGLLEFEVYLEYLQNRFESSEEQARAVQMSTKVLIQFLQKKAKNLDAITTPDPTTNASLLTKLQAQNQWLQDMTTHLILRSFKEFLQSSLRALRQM

EC50 | Binder
0.0842 nM | B1

Target: T1, human interleukin 6 (hIL-6)
Assay: ELISA
Remark: another data set of the same source

EC50 | Binder
0.811 nM | B2
0.795 nM | B3
14.4 nM | B4
0.324 nM | B5
27.7 nM | B6
